# Test results: publication PMC5521740
# Biological target: T1, His-CRP (cAMP receptor protein) (Klebsiella pneumoniae NTUH-K2044) (UniProt A0ACD7U7W2)
# T1 sequence: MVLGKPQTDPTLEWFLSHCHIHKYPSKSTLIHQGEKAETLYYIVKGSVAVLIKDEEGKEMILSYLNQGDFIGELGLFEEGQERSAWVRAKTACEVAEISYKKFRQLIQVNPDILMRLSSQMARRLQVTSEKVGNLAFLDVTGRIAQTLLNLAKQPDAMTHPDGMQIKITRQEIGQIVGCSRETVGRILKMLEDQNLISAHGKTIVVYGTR
# Experiment: DNase I footprinting
# Conditions: 5x binding buffer ([…], room temperature, 20 min ([…]) or 30 min ([…]
sequence,measurement,value
ATACCGGCAGCTGCGAGTAATTTTACGTTTTTCATGGTGTTTGTCCTTTTAACTTTTATGGTGGAAAGCATGTTTGCTTTCGATGGACTTATAATAAGTCTGCTAACTATAACGCGCGTGGCAAAAAGTGCGATTTAGATCACATTTTTATGGCGGTTTGATGGCGTAAACATGATCGTTTATCTATTTTTTAATTTAAAAACAATCAATTAATGATTTGCTTCTGAAAGGGGGTATCACAT (double strand) [KP1_4563 promoter footprinting fragment],binding,binds
